The record followed here is publication PMC8492067 (eLife, 2021).

The Kd is the concentration at which binding is half-saturated. For orientation: stoichiometry N means the number of molecules, sites or subunits per partner or assembly.

Where a chain is given by its changes, count along the chain named. Numbers in names are those of the source.

Data set [1] deals with T1, NrnCBh (Bartonella henselae, UniProt A0A0R4J6U7).
T1 construct: gene rnd1
Nature of the data set: DraCALA nitrocellulose spot binding, radiolabelled ligand.

Data set [2] concerns the molecule itself. Nature of the data set: crystal structure.
Data set [3] deals with T2, NrnCBh (nano-RNase C) (Bartonella henselae, UniProt A0A0R4J6U7 1-206).
T2 sequence: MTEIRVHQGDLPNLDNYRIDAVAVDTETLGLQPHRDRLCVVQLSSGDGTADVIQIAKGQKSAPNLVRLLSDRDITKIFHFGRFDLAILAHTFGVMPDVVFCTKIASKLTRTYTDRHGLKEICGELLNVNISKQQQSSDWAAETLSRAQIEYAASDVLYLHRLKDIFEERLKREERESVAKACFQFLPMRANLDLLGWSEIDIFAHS
Nature of the data set: DraCALA (nitrocellulose); DraCALA: 10 mM Tris-HCl pH 8, 100 mM NaCl, 5 mM CaCl2; temperature not stated. The note with it: protein: recombinant; tags: tag-less (His6-SUMO removed by Ulp-1); chain copies: 8.

Data set [4] deals with the molecule itself. Nature of the data set: SEC-MALS. (In general: Size exclusion chromatography separates by hydrodynamic size, large species first.)
In data set [5] the target is T2, NrnCBh (nano-RNase C). Nature of the data set: cryo-EM; only 3' dinucleotide resolved; DraCALA: 10 mM Tris-HCl pH 8, 100 mM NaCl, 5 mM CaCl2; temperature not stated. The conditions noted are these: protein: recombinant; tags: tag-less (His6-SUMO removed by Ulp-1); chain copies: 8.
Data set [6] has as its target T2, NrnCBh (nano-RNase C). Nature of the data set: cryo-EM; DraCALA: 10 mM Tris-HCl pH 8, 100 mM NaCl, 5 mM CaCl2; temperature not stated. The note with it: protein: recombinant; tags: tag-less (His6-SUMO removed by Ulp-1); chain copies: 8.

Take `Nc1nc2c(ncn2[C@@H]2O[C@H](COP(=O)(O)O[C@H]3[C@@H](O)[C@H](n4cnc5c(=O)[nH]c(N)nc54)O[C@@H]3COP(=O)(O)O[C@H]3[C@@H](O)[C@H](n4cnc5c(N)ncnc54)O[C@@H]3COP(=O)(O)O)[C@@H](O)[C@H]2O)c(=O)[nH]1` [pAGG]: the Kd in data set [1] came out at 3490 nM.

Molecule `Nc1nc2c(ncn2[C@@H]2O[C@H](COP(=O)(O)O[C@H]3[C@@H](O)[C@H](n4cnc5c(=O)[nH]c(N)nc54)O[C@@H]3COP(=O)(O)O)[C@@H](O)[C@H]2O)c(=O)[nH]1` [pGG] came in with a Kd in data set [1] of 17.7 nM.

B1: Brucella melitensis nano-RNase C (NrnC), wild type (enzyme)
chain: MTIRFHRNDLPNLDNYQVDAVAIDTETLGLNPHRDRLCVVQISPGDGTADVIQIEAGQKKAPNLVKLLKDRSITKIFHFGRFDLAVLAHAFGTMPQPVFCTKIASKLTRTYTDRHGLKEICSELLDVSISKQQQSSDWAAEVLSQAQLEYAASDVLYLHRLKAVLEQRLERDGRTKQAEACFKFLPTRSELDLMGWAESDIFAHS
notes: also called NrnCBm
On to B1, for which, in data set [2], the “stoichiometry N” value amounted to 8.

With AAAAAGG (ssRNA, 5' phosphate) [pAAAAAGG], the Kd in data set [3] was determined as 576 nM.

B2: Bartonella henselae nano-RNase C (NrnC), wild type (enzyme)
chain: T2 sequence
notes: also called NrnCBh; wild-type NrnCBh
Turning to B2, in data set [2], the “stoichiometry N” value came to 8.

B3: Bartonella henselae NrnC K103A (enzyme)
chain: T2 sequence with K103A
notes: Phosphate cap mutant
On to B3, for which the “stoichiometry N” value in data set [4] amounted to 8.

B4: Bartonella henselae NrnC D25A (enzyme)
chain: T2 sequence with D25A
B4: the “stoichiometry N” value in data set [4] was determined as 8.

B5: Bartonella henselae NrnC H205A (enzyme)
chain: T2 sequence with H205A
Turning to B5, in data set [4], the “stoichiometry N” value was 8.

B6: Bartonella henselae NrnC H79A (enzyme)
chain: T2 sequence with H79A
notes: Phosphate cap mutant
On to B6, for which the “stoichiometry N” value in data set [4] worked out at 8.

B7: Bartonella henselae NrnC L31A (enzyme)
chain: T2 sequence with L31A
notes: L-wedge mutant
B7: in data set [4], the “stoichiometry N” value was 8.

B8: Bartonella henselae NrnC Y151A (enzyme)
chain: T2 sequence with Y151A
Consider B8, for which, in data set [4], the “stoichiometry N” value stood at 8.

As for AGG (ssRNA, 5' phosphate) [pAGG], in data set [5], the binding result is “binds”.

As to AAAGG (ssRNA, 5' phosphate) [pAAAGG], the binding result in data set [6] was “binds”.
